Tests used:
[1] = target: SHP2-C SH2; test: SH2 binding enrichment of the phosphorylated peptide, bacterial display (enrichment ratio); higher = better substrate or ligand; peptides without Tyr show the background
[2] = target: c-Src SH2; test: as above
[3] = target: Grb2 SH2 (UniProt P62993); test: as above
[4] = system: AncSZ; test: phosphorylation enrichment, bacterial display (enrichment ratio); higher = better substrate or ligand; peptides without Tyr show the background
[5] = target: Jak2 (UniProt O60674); test: as above
[6] = target: MERTK (UniProt Q12866); test: as above
Chain of MERTK (Q12866 whole entry, looked up): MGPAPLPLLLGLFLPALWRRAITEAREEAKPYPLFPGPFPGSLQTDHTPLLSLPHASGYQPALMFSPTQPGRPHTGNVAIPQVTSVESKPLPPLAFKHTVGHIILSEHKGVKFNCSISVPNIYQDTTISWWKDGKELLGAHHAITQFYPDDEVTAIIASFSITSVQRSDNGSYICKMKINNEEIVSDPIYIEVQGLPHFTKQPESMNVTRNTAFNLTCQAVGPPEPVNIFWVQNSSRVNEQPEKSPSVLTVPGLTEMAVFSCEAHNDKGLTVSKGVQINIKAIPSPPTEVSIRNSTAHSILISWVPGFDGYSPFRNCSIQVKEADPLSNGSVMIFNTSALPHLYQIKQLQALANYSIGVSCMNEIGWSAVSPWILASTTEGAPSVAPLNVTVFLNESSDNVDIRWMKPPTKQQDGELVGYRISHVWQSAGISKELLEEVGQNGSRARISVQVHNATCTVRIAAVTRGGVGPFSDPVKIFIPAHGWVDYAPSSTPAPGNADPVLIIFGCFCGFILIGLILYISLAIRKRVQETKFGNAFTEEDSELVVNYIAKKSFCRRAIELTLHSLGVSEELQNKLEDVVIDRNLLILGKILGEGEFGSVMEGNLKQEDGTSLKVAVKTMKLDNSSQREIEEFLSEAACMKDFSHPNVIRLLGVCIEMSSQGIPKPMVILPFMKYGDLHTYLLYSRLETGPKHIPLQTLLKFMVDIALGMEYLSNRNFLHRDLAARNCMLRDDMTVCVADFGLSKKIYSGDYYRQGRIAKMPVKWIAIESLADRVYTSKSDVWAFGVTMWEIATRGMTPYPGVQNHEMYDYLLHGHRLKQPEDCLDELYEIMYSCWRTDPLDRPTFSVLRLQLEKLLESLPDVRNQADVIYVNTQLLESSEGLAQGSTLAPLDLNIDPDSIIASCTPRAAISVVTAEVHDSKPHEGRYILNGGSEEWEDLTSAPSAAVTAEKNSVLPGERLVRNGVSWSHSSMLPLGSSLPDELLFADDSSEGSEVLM

[7] = system: c-Abl (mouse); test: as above
[8] = target: EPHB2 (UniProt P29323); test: as above
Chain of EPHB2 (P29323 whole entry, looked up): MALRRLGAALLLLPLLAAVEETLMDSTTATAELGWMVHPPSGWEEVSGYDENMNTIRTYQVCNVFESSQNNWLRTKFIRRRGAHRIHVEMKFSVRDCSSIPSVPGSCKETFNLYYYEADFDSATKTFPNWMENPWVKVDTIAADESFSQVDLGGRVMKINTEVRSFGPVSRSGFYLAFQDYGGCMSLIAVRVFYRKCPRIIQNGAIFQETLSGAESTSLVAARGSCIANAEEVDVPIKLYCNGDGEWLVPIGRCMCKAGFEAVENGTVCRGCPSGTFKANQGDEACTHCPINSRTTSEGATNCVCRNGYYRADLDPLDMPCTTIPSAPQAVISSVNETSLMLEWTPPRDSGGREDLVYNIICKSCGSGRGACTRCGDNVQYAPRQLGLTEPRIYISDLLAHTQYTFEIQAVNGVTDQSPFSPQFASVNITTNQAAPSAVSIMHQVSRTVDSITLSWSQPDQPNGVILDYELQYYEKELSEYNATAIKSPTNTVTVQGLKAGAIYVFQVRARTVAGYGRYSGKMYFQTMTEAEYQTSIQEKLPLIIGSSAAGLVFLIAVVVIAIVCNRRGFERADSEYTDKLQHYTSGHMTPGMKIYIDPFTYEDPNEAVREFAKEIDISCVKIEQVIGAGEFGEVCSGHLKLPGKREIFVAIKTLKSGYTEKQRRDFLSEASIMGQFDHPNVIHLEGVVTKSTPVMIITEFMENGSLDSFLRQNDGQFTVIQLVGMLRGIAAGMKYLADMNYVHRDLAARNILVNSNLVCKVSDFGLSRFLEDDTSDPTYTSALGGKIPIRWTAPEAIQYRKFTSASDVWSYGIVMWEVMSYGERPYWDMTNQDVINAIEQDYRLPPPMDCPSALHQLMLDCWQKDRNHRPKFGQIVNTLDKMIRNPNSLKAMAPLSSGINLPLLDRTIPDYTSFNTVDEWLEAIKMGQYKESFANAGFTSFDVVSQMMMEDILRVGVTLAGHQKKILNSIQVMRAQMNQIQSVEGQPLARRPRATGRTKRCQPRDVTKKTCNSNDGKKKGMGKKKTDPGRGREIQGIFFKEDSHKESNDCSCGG

[9] = system: Fer (mouse); test: as above
[10] = system: c-Src; test: as above
[11] = target: EPHB1 (UniProt P54762); test: as above
[12] = target: FGFR1 (UniProt P11362); test: as above
Chain of FGFR1 (P11362 whole entry, looked up): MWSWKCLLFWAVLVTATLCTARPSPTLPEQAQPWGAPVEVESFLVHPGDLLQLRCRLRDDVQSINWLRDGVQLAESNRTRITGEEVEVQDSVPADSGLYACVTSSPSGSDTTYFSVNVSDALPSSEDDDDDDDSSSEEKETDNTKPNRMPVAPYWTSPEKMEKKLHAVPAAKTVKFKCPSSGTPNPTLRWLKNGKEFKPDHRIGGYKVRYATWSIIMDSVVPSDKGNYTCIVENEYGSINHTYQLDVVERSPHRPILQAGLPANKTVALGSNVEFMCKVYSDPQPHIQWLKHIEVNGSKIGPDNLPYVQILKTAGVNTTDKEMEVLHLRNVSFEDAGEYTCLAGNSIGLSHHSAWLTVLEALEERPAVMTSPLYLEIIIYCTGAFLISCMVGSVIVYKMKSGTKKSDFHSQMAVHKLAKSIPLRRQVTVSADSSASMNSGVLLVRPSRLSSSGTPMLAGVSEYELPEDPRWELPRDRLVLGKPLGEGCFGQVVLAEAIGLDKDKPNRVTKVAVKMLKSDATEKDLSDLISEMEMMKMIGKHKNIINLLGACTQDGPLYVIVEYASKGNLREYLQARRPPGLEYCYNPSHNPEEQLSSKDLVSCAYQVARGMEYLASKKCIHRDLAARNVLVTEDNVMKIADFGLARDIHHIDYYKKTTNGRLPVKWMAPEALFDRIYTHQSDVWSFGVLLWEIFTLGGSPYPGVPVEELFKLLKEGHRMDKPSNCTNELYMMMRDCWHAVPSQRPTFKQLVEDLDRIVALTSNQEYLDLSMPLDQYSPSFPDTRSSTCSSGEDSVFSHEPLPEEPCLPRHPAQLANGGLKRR

[13] = target: Fyn (UniProt P06241); test: as above
Chain of Fyn (P06241 whole entry, looked up): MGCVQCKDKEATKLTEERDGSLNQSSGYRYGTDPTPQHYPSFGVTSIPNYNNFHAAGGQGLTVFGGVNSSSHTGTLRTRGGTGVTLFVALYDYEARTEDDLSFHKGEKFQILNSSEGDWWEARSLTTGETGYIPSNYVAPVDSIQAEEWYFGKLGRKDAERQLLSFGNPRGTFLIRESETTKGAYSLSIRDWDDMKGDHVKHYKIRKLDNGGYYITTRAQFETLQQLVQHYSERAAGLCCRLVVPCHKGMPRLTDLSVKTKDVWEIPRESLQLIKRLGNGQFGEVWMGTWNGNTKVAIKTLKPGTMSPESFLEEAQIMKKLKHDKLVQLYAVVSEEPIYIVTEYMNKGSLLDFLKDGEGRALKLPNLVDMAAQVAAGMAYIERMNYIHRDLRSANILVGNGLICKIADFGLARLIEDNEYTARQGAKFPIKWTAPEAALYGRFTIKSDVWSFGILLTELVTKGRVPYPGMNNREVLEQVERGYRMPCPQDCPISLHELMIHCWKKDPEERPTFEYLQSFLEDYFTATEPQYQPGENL

[14] = target: Fes (UniProt P07332); test: as above
[15] = target: Hck (UniProt P08631); test: as above
Chain of Hck (P08631 whole entry, looked up): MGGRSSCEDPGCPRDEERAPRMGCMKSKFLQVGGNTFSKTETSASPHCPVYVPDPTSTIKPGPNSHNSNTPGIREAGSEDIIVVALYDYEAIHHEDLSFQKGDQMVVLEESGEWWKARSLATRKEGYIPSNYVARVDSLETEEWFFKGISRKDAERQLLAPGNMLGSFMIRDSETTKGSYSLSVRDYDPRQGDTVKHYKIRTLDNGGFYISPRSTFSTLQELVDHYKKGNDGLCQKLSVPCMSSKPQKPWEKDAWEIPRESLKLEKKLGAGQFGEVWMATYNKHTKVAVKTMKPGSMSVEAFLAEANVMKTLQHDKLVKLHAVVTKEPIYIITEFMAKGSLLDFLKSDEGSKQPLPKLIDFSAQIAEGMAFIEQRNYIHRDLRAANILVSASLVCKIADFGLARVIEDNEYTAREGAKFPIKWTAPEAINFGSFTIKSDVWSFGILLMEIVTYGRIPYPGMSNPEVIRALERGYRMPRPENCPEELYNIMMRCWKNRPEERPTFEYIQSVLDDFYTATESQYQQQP

[16] = target: FGFR3 (UniProt P22607); test: as above
Chain of FGFR3 (P22607 whole entry, looked up, the tested form may be a part): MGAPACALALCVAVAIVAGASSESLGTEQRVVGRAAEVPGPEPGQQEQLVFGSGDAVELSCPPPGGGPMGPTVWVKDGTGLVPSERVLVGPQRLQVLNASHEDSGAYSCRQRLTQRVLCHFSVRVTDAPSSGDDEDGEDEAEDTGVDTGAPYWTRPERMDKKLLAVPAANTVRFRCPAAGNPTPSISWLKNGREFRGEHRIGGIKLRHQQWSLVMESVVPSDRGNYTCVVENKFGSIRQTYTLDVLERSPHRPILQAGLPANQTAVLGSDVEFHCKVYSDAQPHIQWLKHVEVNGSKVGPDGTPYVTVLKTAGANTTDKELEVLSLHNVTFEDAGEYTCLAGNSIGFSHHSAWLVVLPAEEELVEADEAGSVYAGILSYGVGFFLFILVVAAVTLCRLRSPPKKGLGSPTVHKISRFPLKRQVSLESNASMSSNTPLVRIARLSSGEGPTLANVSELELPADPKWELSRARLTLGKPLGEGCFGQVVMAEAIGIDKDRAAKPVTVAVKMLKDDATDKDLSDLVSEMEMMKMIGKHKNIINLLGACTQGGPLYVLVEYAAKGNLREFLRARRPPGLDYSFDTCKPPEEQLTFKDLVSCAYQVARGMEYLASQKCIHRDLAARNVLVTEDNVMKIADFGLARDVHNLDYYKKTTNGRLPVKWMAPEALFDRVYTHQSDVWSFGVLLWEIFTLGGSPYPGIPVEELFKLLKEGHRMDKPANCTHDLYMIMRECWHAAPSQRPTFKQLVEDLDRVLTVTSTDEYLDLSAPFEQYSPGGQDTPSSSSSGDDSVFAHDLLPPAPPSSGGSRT
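Wherever SH2 binding enrichment of the phosphorylated peptide, bacterial display is given: peptide library displayed on the E. coli surface as eCPX fusions, selected cells deep-sequenced, score is each peptide's frequency after selection divided by its frequency in the input.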
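Wherever phosphorylation enrichment, bacterial display is given: 11-residue human phosphosite peptides and single-mutation variants displayed on the E. coli surface, counted by deep sequencing, each peptide's frequency after selection divided by its frequency in the unselected input library; frequency after pTyr selection over input frequency; kinase dosed for 20-30% of maximal phosphorylation in three min.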

Chain of Grb2 SH2 (P62993 whole entry, looked up): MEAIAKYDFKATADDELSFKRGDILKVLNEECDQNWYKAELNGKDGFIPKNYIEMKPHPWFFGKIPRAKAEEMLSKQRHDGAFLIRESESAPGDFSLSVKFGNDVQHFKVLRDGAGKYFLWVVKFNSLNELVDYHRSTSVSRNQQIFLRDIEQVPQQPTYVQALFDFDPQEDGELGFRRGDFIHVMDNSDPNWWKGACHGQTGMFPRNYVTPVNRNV

| Sequence | SH2 binding enrichment [1] | SH2 binding enrichment [2] | SH2 binding enrichment [3] | phosphorylation enrichment [4] | phosphorylation enrichment [5] | phosphorylation enrichment [6] | phosphorylation enrichment [7] | phosphorylation enrichment [8] | phosphorylation enrichment [9] | phosphorylation enrichment [10] | phosphorylation enrichment [11] | phosphorylation enrichment [12] | phosphorylation enrichment [13] | phosphorylation enrichment [14] | phosphorylation enrichment [15] | phosphorylation enrichment [16] |
| --- | --- | --- | --- | --- | --- | --- | --- | --- | --- | --- | --- | --- | --- | --- | --- | --- |
| IAAEYYDNLPH [DEGS1_Y284] | 0.542 | 1.13 | 0.88 | 1.75 | 0.98 | 0.917 | 0.808 | 0.813 | 0.874 | 0.782 | 0.797 | 7.81 | 0.613 | 1.02 | 2.42 | 5.34 |
| IALSKYGRVKR [FGF6_Y186] | 0.447 | 0.501 | 0.711 | 0.61 | 0.57 | 0.438 | 0.552 | 0.424 | 0.372 | 0.463 | 0.32 | 0.359 | 0.358 | 0.564 | 0.412 | 0.373 |
| IDQDKYAVHFI [FLNA_Y2388_R2391H] | 0.607 | 0.491 | 0.711 | 0.886 | 0.801 | 0.388 | 0.734 | 0.547 | 0.625 | 0.433 | 0.483 | 0.468 | 0.396 | 0.945 | 0.467 | 0.61 |
| IENKPYGMSDP [RET_Y1062_L1061P] | 0.648 | 0.401 | 0.702 | 0.761 | 0.869 | 0.41 | 0.549 | 0.508 | 0.483 | 0.414 | 0.55 | 0.504 | 0.41 | 0.861 | 0.458 | 0.599 |
| IFGVSYDEFRF [CFTR_Y512_YF] | 0.684 | 0.897 | 0.991 | 1.07 | 1.09 | 0.671 | 0.678 | 0.524 | 1.52 | 2.32 | 0.456 | 0.5 | 0.673 | 0.982 | 0.93 | 0.609 |
| IFHLSYHHNCE [PDE6B_Y227_L228H_YF] | 1.16 | 0.873 | 1.14 | 1.15 | 0.831 | 0.381 | 0.588 | 0.635 | 0.517 | 0.455 | 0.567 | 0.499 | 0.522 | 1.18 | 0.478 | 0.694 |
| IGEGTYGQVFK [CDK13_Y716_YF] | 0.808 | 0.426 | 0.774 | 0.456 | 0.569 | 0.428 | 0.566 | 1.18 | 0.636 | 7.69 | 0.62 | 0.324 | 10.8 | 0.665 | 8.97 | 0.402 |
| IGLHAYGDQFR [IDH1_Y135_R132L_YF] | 0.449 | 0.419 | 0.703 | 0.687 | 0.519 | 0.4 | 0.51 | 0.491 | 0.51 | 0.39 | 0.413 | 0.423 | 0.502 | 0.799 | 0.473 | 0.594 |
| IGMIIYFARKA [VCAM1_Y718] | 1.43 | 1.03 | 2.08 | 0.9 | 0.88 | 0.374 | 0.734 | 2.23 | 0.417 | 0.449 | 0.487 | 0.515 | 0.481 | 0.957 | 1.09 | 0.72 |
| IGMLIYFARKA [VCAM1_Y718_I716L] | 1.23 | 0.993 | 1.43 | 0.934 | 0.703 | 0.496 | 0.508 | 0.481 | 0.425 | 0.424 | 0.518 | 0.461 | 0.453 | 0.846 | 0.536 | 0.456 |
| IHFAIYLLKYS [ARMC9_Y107] | 0.955 | 0.726 | 1.44 | 1.09 | 0.917 | 0.425 | 0.753 | 0.59 | 0.486 | 0.446 | 0.486 | 0.368 | 0.516 | 1.16 | 0.463 | 0.686 |
| IINENYDYLKG [NUP98_Y1664] | 0.812 | 0.728 | 0.751 | 0.846 | 0.803 | 0.491 | 0.649 | 0.707 | 0.401 | 0.469 | 0.657 | 0.535 | 0.406 | 0.871 | 1.07 | 0.518 |
| IITDYYVDMKF [MPP4_Y567_V562I] | 0.803 | 1.11 | 0.8 | 1.87 | 2.52 | 1.22 | 0.856 | 2.11 | 1.38 | 0.98 | 3.56 | 7.4 | 1.01 | 1.46 | 1.17 | 5.13 |
| IKGNMYFENSF [EGFR_Y112_R108K_YF] | 0.784 | 0.619 | 0.932 | 0.991 | 1.02 | 0.539 | 0.897 | 0.446 | 0.471 | 0.657 | 0.589 | 0.516 | 0.533 | 0.951 | 0.397 | 0.677 |
| IKNSGYISQFL [EIF2AK3_Y585_R588Q_YF] | 0.878 | 0.573 | 0.908 | 0.531 | 0.404 | 0.327 | 0.625 | 0.458 | 0.377 | 0.385 | 0.434 | 0.445 | 0.531 | 0.579 | 0.458 | 0.474 |
| IKRIAYEFVEM [ADA_Y84] | 0.691 | 0.973 | 0.729 | 0.85 | 0.701 | 0.388 | 0.599 | 0.478 | 2.96 | 0.383 | 0.387 | 0.564 | 0.438 | 0.837 | 0.414 | 0.58 |
